Laboratory results taken from IntAct's records for PubMed 25910212.

B1: F-box only protein 7 (Homo sapiens), Q9Y3I1 (parent)
chain: MRLRVRLLKRTWPLEVPETEPTLGHLRSHLRQSLLCTWGYSSNTRFTITLNYKDPLTGDEETLASYGIVSGDLICLILQDDIPAPNIPSSTDSEHSSLQNNEQPSLATSSNQTSMQDEQPSDSFQGQAAQSGVWNDDSMLGPSQNFEAESIQDNAHMAEGTGFYPSEPMLCSESVEGQVPHSLETLYQSADCSDANDALIVLIHLLMLESGYIPQGTEAKALSMPEKWKLSGVYKLQYMHPLCEGSSATLTCVPLGNLIVVNATLKINNEIRSVKRLQLLPESFICKEKLGENVANIYKDLQKLSRLFKDQLVYPLLAFTRQALNLPDVFGLVVLPLELKLRIFRLLDVRSVLSLSAVCRDLFTASNDPLLWRFLYLRDFRDNTVRVQDTDWKELYRKRHIQRKESPKGRFVMLLPSSTHTIPFYPNPLHPRPFPSSRLPPGIIGGEYDQRPTLPYVGDPISSLIPGPGETPSQFPPLRPRFDPVGPLPGPNPILPGRGGPNDRFPFRPSRGRPTDGRLSFM
B2: Keratin, type II cytoskeletal 6A (Homo sapiens), P02538 (parent)
chain: MASTSTTIRSHSSSRRGFSANSARLPGVSRSGFSSVSVSRSRGSGGLGGACGGAGFGSRSLYGLGGSKRISIGGGSCAISGGYGSRAGGSYGFGGAGSGFGFGGGAGIGFGLGGGAGLAGGFGGPGFPVCPPGGIQEVTVNQSLLTPLNLQIDPTIQRVRAEEREQIKTLNNKFASFIDKVRFLEQQNKVLETKWTLLQEQGTKTVRQNLEPLFEQYINNLRRQLDSIVGERGRLDSELRGMQDLVEDFKNKYEDEINKRTAAENEFVTLKKDVDAAYMNKVELQAKADTLTDEINFLRALYDAELSQMQTHISDTSVVLSMDNNRNLDLDSIIAEVKAQYEEIAQRSRAEAESWYQTKYEELQVTAGRHGDDLRNTKQEIAEINRMIQRLRSEIDHVKKQCANLQAAIADAEQRGEMALKDAKNKLEGLEDALQKAKQDLARLLKEYQELMNVKLALDVEIATYRKLLEGEECRLNGEGVGQVNISVVQSTVSSGYGGASGVGSGLGLGGGSSYSYGSGLGVGGGFSSSSGRAIGGGLSSVGGGSSTIKYTTTSSSSRKSYKH
partner: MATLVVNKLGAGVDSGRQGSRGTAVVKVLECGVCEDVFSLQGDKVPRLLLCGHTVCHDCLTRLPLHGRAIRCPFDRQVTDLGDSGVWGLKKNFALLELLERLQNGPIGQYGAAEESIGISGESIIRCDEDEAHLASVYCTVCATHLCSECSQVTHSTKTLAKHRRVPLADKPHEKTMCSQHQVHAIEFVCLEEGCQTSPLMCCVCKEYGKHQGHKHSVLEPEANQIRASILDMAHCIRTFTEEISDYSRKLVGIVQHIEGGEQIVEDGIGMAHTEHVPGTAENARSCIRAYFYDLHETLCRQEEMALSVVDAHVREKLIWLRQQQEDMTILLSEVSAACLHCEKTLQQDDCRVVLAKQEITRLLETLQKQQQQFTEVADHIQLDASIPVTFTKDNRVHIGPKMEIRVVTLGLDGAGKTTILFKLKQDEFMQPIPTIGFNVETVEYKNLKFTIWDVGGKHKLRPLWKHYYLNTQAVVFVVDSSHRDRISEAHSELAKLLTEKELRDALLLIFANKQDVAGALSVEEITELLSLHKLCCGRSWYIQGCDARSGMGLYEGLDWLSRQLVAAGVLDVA
B3: U4/U6 small nuclear ribonucleoprotein Prp31 (Homo sapiens), Q8WWY3 (parent)
chain: MSLADELLADLEEAAEEEEGGSYGEEEEEPAIEDVQEETQLDLSGDSVKTIAKLWDSKMFAEIMMKIEEYISKQAKASEVMGPVEAAPEYRVIVDANNLTVEIENELNIIHKFIRDKYSKRFPELESLVPNALDYIRTVKELGNSLDKCKNNENLQQILTNATIMVVSVTASTTQGQQLSEEELERLEEACDMALELNASKHRIYEYVESRMSFIAPNLSIIIGASTAAKIMGVAGGLTNLSKMPACNIMLLGAQRKTLSGFSSTSVLPHTGYIYHSDIVQSLPPDLRRKAARLVAAKCTLAARVDSFHESTEGKVGYELKDEIERKFDKWQEPPPVKQVKPLPAPLDGQRKKRGGRRYRKMKERLGLTEIRKQANRMSFGEIEEDAYQEDLGFSLGHLGKSGSGRVRQTQVNEATKARISKTLQRTLQKQSVVYGGKSTIRDRSSGTASSVAFTPLQGLEIVNPQAAEKKVAEANQKYFSSMAEFLKVKGEKSGLMST
partner: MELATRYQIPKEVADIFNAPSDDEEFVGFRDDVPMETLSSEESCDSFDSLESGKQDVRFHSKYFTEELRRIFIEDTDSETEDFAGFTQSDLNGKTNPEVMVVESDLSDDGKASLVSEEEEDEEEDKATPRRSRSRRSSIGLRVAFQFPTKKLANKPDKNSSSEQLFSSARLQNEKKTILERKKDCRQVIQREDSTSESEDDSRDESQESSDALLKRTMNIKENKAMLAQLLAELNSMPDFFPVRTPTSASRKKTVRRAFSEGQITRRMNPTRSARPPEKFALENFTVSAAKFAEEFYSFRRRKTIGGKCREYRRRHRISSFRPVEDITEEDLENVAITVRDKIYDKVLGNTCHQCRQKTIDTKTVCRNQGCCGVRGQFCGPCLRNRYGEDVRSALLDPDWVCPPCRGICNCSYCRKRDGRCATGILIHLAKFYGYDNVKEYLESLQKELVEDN
B4: DNA mismatch repair protein Mlh1 (Homo sapiens), P40692 (parent)
chain: MSFVAGVIRRLDETVVNRIAAGEVIQRPANAIKEMIENCLDAKSTSIQVIVKEGGLKLIQIQDNGTGIRKEDLDIVCERFTTSKLQSFEDLASISTYGFRGEALASISHVAHVTITTKTADGKCAYRASYSDGKLKAPPKPCAGNQGTQITVEDLFYNIATRRKALKNPSEEYGKILEVVGRYSVHNAGISFSVKKQGETVADVRTLPNASTVDNIRSIFGNAVSRELIEIGCEDKTLAFKMNGYISNANYSVKKCIFLLFINHRLVESTSLRKAIETVYAAYLPKNTHPFLYLSLEISPQNVDVNVHPTKHEVHFLHEESILERVQQHIESKLLGSNSSRMYFTQTLLPGLAGPSGEMVKSTTSLTSSSTSGSSDKVYAHQMVRTDSREQKLDAFLQPLSKPLSSQPQAIVTEDKTDISSGRARQQDEEMLELPAPAEVAAKNQSLEGDTTKGTSEMSEKRGPTSSNPRKRHREDSDVEMVEDDSRKEMTAACTPRRRIINLTSVLSLQEEINEQGHEVLREMLHNHSFVGCVNPQWALAQHQTKLYLLNTTKLSEELFYQILIYDFANFGVLRLSEPAPLFDLAMLALDSPESGWTEEDGPKEGLAEYIVEFLKKKAEMLADYFSLEIDEEGNLIGLPLLIDNYVPPLEGLPIFILRLATEVNWDEEKECFESLSKECAMFYSIRKQYISEESTLSGQQSEVPGSIPNSWKWTVEHIVYKALRSHILPPKHFTEDGNILQLANLPDLYKVFERC
partner: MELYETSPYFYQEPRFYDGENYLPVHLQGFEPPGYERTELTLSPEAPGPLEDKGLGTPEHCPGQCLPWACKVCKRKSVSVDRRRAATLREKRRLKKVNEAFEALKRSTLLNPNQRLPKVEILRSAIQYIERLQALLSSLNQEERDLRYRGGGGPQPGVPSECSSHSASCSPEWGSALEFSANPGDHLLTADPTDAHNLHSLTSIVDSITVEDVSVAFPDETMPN
B5: Dual specificity protein phosphatase 23 (Homo sapiens), Q9BVJ7 (parent)
chain: MGVQPPNFSWVLPGRLAGLALPRLPAHYQFLLDLGVRHLVSLTERGPPHSDSCPGLTLHRLRIPDFCPPAPDQIDRFVQIVDEANARGEAVGVHCALGFGRTGTMLACYLVKERGLAAGDAIAEIRRLRPGSIETYEQEKAVFQFYQRTK
B6: 2'-5'-oligoadenylate synthase 1 (Homo sapiens), P00973-2 (parent)
chain: MMDLRNTPAKSLDKFIEDYLLPDTCFRMQINHAIDIICGFLKERCFRGSSYPVCVSKVVKGGSSGKGTTLRGRSDADLVVFLSPLTTFQDQLNRRGEFIQEIRRQLEACQRERAFSVKFEVQAPRWGNPRALSFVLSSLQLGEGVEFDVLPAFDALGQLTGGYKPNPQIYVKLIEECTDLQKEGEFSTCFTELQRDFLKQRPTKLKSLIRLVKHWYQNCKKKLGKLPPQYALELLTVYAWERGSMKTHFNTAQGFRTVLELVINYQQLCIYWTKYYDFKNPIIEKYLRRQLTKPRPVILDPADPTGNLGGGDPKGWRQLAQEAEAWLNYPCFKNWDGSPVSSWILLVRPPASSLPFIPAPLHEA
B7: U4/U6 small nuclear ribonucleoprotein Prp3 (Homo sapiens), O43395 (parent)
chain: MALSKRELDELKPWIEKTVKRVLGFSEPTVVTAALNCVGKGMDKKKAADHLKPFLDDSTLRFVDKLFEAVEEGRSSRHSKSSSDRSRKRELKEVFGDDSEISKESSGVKKRRIPRFEEVEEEPEVIPGPPSESPGMLTKLQIKQMMEAATRQIEERKKQLSFISPPTPQPKTPSSSQPERLPIGNTIQPSQAATFMNDAIEKARKAAELQARIQAQLALKPGLIGNANMVGLANLHAMGIAPPKVELKDQTKPTPLILDEQGRTVDATGKEIELTHRMPTLKANIRAVKREQFKQQLKEKPSEDMESNTFFDPRVSIAPSQRQRRTFKFHDKGKFEKIAQRLRTKAQLEKLQAEISQAARKTGIHTSTRLALIAPKKELKEGDIPEIEWWDSYIIPNGFDLTEENPKREDYFGITNLVEHPAQLNPPVDNDTPVTLGVYLTKKEQKKLRRQTRREAQKELQEKVRLGLMPPPEPKVRISNLMRVLGTEAVQDPTKVEAHVRAQMAKRQKAHEEANAARKLTAEQRKVKKIKKLKEDISQGVHISVYRVRNLSNPAKKFKIEANAGQLYLTGVVVLHKDVNVVVVEGGPKAQKKFKRLMLHRIKWDEQTSNTKGDDDEESDEEAVKKTNKCVLVWEGTAKDRSFGEMKFKQCPTENMAREHFKKHGAEHYWDLALSESVLESTD

Variants of: B1
Details: with psa3_human PSMA3, P25788
Sequence of psa3_human PSMA3, P25788 (P25788 whole entry): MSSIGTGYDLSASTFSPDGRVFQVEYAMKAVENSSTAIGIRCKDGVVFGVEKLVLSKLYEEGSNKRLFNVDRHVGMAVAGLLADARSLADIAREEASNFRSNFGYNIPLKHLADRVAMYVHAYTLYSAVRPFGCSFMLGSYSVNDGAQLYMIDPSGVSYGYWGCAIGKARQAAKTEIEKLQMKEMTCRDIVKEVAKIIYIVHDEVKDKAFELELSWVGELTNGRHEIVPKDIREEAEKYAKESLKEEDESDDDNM

| Variant | effect of a mutation on the interaction |
| --- | --- |
| T22M | disrupting interaction strength |

Variants of: B2
Details: with tri23_human TRIM23, P36406

| Variant | effect of a mutation on the interaction |
| --- | --- |
| V523F | with no effect |
| F249L | with no effect |
| F174V | with no effect |
| I462S | disrupting interaction strength |
| A463P | disrupting interaction strength |
| T552S | with no effect |
| N21S | with no effect |
| N171K | disrupting interaction strength |

Variants of: B3
Details: with CDCA7L

| Variant | effect of a mutation on the interaction |
| --- | --- |
| L107V | with no effect |

Variants of: B4
Details: with myog_human MYOG

| Variant | effect of a mutation on the interaction |
| --- | --- |
| G244D | disrupting interaction strength |
| R472I | with no effect |

Variants of: B5
Details: with exos8_human EXOSC8, Q96B26
Sequence of exos8_human EXOSC8, Q96B26 (Q96B26 whole entry): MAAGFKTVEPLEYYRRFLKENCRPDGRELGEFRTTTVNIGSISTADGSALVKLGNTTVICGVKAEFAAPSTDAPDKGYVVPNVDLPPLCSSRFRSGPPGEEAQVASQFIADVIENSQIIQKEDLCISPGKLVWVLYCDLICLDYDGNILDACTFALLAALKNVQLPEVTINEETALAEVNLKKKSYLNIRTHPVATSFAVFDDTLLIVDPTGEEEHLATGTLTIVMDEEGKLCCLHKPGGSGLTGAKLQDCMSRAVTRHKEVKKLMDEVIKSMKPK

| Variant | effect of a mutation on the interaction |
| --- | --- |
| G131S | with no effect |

Variants of: B6
Details: with exoc5_human EXOC5, O00471
Sequence of exoc5_human EXOC5, O00471 (O00471 whole entry): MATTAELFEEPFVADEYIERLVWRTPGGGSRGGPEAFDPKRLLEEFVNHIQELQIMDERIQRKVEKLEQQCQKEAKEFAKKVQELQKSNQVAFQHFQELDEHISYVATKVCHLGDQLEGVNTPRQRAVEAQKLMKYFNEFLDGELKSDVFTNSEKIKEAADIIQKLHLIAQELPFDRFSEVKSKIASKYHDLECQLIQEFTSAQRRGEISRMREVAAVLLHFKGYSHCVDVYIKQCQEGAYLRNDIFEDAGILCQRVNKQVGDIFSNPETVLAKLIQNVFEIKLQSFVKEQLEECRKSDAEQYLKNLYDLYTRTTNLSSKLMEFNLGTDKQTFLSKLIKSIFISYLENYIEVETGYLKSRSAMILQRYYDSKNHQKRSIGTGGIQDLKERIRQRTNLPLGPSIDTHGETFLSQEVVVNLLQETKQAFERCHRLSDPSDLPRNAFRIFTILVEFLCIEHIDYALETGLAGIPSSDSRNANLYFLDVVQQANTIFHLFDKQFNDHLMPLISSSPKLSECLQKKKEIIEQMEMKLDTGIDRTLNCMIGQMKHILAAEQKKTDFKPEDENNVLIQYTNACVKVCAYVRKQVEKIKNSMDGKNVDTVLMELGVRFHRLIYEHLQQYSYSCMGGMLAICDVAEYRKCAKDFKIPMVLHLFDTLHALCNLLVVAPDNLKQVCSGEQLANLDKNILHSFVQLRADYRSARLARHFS

| Variant | effect of a mutation on the interaction |
| --- | --- |
| R242Q | with no effect |

Variants of: B6
Details: with actn1_human ACTN1, P12814
Sequence of actn1_human ACTN1, P12814 (P12814 whole entry): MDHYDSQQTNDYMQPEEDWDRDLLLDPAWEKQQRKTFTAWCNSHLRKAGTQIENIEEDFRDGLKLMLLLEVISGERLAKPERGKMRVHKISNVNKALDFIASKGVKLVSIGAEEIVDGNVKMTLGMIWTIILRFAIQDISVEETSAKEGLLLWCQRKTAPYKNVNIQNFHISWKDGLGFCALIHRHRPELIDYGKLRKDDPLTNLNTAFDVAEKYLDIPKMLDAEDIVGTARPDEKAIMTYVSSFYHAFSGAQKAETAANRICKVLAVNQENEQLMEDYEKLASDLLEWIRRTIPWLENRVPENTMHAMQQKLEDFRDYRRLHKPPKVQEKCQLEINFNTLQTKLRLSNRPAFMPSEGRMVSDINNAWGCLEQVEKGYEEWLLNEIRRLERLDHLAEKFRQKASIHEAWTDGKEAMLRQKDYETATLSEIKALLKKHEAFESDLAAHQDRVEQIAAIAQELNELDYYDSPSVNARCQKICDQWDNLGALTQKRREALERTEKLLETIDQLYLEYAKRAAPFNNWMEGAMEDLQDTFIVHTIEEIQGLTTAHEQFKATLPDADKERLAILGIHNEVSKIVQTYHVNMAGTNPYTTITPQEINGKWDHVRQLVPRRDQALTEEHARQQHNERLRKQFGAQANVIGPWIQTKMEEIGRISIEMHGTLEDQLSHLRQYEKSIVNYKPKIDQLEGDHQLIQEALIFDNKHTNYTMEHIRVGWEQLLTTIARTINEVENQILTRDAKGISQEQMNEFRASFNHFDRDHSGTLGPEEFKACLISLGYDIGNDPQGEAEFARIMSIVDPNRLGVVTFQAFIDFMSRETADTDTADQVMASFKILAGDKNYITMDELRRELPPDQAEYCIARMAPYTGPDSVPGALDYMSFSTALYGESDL

| Variant | effect of a mutation on the interaction |
| --- | --- |
| R242Q | with no effect |

Variants of: B7
Details: with psmd3_human PSMD3, O43242
Sequence of psmd3_human PSMD3, O43242 (O43242 whole entry): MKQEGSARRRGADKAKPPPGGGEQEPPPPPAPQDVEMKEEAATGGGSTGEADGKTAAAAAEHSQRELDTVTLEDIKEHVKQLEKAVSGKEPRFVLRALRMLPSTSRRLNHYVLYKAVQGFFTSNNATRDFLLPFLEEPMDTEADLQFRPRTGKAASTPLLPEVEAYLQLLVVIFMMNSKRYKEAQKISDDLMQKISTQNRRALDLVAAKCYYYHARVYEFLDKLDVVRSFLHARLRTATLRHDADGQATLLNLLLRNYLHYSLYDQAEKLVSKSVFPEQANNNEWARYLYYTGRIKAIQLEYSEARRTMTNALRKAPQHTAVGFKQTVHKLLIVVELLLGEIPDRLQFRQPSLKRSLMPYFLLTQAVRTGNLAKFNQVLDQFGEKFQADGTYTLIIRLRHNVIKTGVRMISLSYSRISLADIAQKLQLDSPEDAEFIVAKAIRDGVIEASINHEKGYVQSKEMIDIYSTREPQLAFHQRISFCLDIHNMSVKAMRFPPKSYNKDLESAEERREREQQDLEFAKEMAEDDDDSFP

| Variant | effect of a mutation on the interaction |
| --- | --- |
| P493S | disrupting interaction strength |
| T494M | disrupting interaction strength |
| A489D | disrupting interaction strength |

Variants of: B7
Details: with fam9b_human FAM9B

| Variant | effect of a mutation on the interaction |
| --- | --- |
| P493S | with no effect |
| T494M | disrupting interaction strength |
| A489D | with no effect |
